Results reported in patent publication US20110039770A1 (PHARMAGAP, published 2011).
Read-outs that look alike come from different tables or passages of the source.

T1: PKC-ε, purified isoform (UniProt Q02156 1-737)
T1 construct: also called PKC-epsilon; epsilon
T1 sequence (looked up): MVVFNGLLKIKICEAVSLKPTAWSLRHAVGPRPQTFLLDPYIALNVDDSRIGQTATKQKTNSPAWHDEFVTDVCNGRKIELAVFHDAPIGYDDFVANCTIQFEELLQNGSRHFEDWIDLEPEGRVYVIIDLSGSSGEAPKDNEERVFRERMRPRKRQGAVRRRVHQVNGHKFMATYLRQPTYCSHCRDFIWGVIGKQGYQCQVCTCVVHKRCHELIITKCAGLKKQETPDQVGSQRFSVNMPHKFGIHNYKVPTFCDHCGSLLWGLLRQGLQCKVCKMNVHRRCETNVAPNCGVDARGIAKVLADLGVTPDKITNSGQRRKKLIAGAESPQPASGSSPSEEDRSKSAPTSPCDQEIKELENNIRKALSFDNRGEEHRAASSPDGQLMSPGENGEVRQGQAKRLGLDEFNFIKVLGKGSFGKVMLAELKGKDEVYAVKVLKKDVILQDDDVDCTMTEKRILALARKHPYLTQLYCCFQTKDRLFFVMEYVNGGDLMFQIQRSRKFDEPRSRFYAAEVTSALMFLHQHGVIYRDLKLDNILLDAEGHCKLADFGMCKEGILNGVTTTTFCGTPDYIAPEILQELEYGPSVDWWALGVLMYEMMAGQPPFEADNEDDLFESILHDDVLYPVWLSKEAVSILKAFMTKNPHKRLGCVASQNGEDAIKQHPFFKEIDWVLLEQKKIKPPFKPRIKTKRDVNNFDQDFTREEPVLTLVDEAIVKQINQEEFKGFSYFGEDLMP

T2: PKC-ι in extracts of human cell lines (human, UniProt P41743 2-596)
T2 construct: Denatured on the Western blot membrane; also called PKC-iota (cell extract)
T2 sequence (looked up): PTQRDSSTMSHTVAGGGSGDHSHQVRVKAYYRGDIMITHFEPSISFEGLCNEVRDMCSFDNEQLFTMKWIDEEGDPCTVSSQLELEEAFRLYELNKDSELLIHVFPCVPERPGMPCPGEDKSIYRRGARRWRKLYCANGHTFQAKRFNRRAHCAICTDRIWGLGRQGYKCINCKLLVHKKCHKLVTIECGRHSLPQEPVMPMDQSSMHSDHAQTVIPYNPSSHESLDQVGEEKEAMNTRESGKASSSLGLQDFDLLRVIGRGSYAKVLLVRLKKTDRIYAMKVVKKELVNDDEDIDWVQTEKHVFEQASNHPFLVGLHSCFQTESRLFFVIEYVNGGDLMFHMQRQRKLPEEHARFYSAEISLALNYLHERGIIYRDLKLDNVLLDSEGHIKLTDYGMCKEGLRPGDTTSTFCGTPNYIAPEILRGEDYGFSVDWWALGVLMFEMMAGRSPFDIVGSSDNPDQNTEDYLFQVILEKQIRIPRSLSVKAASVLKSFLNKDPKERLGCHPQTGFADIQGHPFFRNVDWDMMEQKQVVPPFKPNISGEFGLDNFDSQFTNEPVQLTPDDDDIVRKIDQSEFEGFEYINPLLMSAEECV

T3: PKC-ζ in extracts of human cell lines (human, UniProt Q05513 1-592)
T3 construct: Denatured on the Western blot membrane; also called PKC-zeta (cell extract)
T3 sequence (looked up): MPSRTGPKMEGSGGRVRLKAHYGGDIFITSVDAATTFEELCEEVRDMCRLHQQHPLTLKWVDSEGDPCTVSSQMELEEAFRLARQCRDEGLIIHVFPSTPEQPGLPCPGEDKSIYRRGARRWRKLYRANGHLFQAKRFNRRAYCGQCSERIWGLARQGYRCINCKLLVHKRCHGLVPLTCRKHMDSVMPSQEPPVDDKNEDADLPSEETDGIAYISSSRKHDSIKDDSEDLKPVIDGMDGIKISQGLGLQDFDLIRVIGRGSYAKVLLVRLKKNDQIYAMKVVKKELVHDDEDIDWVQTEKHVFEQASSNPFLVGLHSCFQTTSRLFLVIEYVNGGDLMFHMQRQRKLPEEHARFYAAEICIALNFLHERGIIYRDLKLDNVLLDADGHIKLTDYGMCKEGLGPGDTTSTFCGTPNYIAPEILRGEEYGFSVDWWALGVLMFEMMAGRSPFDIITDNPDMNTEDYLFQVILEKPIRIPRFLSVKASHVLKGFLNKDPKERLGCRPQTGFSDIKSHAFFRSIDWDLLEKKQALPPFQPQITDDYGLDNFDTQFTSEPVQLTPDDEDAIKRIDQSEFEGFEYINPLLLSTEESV

T4: PKC-ε in extracts of human cell lines (human, UniProt Q02156 1-737)
T4 construct: Denatured on the Western blot membrane; also called PKC-epsilon (cell extract)
T4 sequence (looked up): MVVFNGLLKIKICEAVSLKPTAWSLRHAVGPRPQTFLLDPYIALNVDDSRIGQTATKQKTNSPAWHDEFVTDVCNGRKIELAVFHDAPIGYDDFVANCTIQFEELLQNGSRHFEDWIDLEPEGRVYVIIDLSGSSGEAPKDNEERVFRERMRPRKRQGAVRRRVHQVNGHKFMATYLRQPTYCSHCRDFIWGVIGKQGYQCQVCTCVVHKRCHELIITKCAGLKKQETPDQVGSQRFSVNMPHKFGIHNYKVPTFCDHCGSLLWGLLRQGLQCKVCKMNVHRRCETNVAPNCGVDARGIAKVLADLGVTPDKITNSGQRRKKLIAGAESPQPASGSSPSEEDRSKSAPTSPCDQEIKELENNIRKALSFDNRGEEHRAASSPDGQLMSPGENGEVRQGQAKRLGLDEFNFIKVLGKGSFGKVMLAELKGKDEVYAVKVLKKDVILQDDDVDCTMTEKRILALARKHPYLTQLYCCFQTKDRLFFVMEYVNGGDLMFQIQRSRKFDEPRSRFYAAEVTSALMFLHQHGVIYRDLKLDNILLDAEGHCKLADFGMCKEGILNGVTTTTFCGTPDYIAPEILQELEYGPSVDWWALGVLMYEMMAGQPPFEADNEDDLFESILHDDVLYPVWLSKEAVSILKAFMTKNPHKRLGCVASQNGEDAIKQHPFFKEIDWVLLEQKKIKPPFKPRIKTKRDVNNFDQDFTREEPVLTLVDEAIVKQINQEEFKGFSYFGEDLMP


Legend:
[1] = target: T1, PKC-ε, purified isoform; assay: competition ELISA on coated purified PKC-ε vs anti-PKC ε antibody; PRE 50 µM
[2] = target: T1, PKC-ε, purified isoform; assay: competition ELISA on coated purified PKC-ε vs anti-PKC ε antibody; PRE 100 µM
[3] = target: T1, PKC-ε, purified isoform; assay: competition ELISA on coated purified PKC-ε vs anti-PKC ε antibody; PRE 200 µM
[4] = target: T2, PKC-ι in extracts of human cell lines; assay: Western-blot competition, cell extracts: PRE at 10X/20X the anti-PKC iota primary antibody concentration competes with that antibody; band densitometry (lower band = PRE bound)
[5] = target: T5, PKC-βI, purified isoform (UniProt P05771-1 1-671); assay: purified isoform competition ELISA, summary grade
T5 construct: also called PKC-beta I; beta 1

[6] = target: T6, PKC-βII, purified isoform (UniProt P05771-2 1-673); assay: purified isoform competition ELISA, summary grade
T6 construct: also called PKC-beta II; beta 2

[7] = target: T1, PKC-ε, purified isoform; assay: purified isoform competition ELISA, summary grade
[8] = target: T2, PKC-ι in extracts of human cell lines; assay: Western-blot competition, cell extracts: PRE at 10X/20X the anti-PKC iota primary antibody concentration competes with that antibody; band densitometry (lower band = PRE bound); remark: listed apart in the source
[9] = target: T3, PKC-ζ in extracts of human cell lines; assay: Western-blot competition, cell extracts: PRE at 10X/20X the anti-PKC zeta primary antibody concentration competes with that antibody; band densitometry (lower band = PRE bound)
[10] = target: T7, PKC-βI in extracts of human cell lines (human, UniProt P05771-1 2-671); assay: Western-blot competition, cell extracts: PRE at 10X/20X the anti-PKC beta I primary antibody concentration competes with that antibody; band densitometry (lower band = PRE bound)
T7 construct: Denatured on the Western blot membrane; beta I splice form; also called PKC-beta I (cell extract)

[11] = target: T4, PKC-ε in extracts of human cell lines; assay: Western-blot competition, cell extracts: PRE at 10X/20X the anti-PKC epsilon primary antibody concentration competes with that antibody; band densitometry (lower band = PRE bound)
[12] = target: T2, PKC-ι in extracts of human cell lines; assay: Western-blot competition, cell extracts: PRE at 10X/20X the anti-PKC iota primary antibody concentration competes with that antibody; band densitometry (lower band = PRE bound); remark: listed apart in the source
[13] = target: T3, PKC-ζ in extracts of human cell lines; assay: Western-blot competition, cell extracts: PRE at 10X/20X the anti-PKC zeta primary antibody concentration competes with that antibody; band densitometry (lower band = PRE bound); remark: listed apart in the source
[14] = target: T2, PKC-ι in extracts of human cell lines; assay: Western-blot competition, cell extracts: PRE at 10X/20X the anti-PKC iota primary antibody concentration competes with that antibody; band densitometry (lower band = PRE bound); remark: listed apart in the source
[15] = target: T2, PKC-ι in extracts of human cell lines; assay: as above; remark: listed apart in the source
[16] = target: T3, PKC-ζ in extracts of human cell lines; assay: Western-blot competition, cell extracts: PRE at 10X/20X the anti-PKC zeta primary antibody concentration competes with that antibody; band densitometry (lower band = PRE bound); remark: listed apart in the source
[17] = target: T2, PKC-ι in extracts of human cell lines; assay: Western-blot competition, cell extracts: PRE at 10X/20X the anti-PKC iota primary antibody concentration competes with that antibody; band densitometry (lower band = PRE bound); remark: listed apart in the source
[18] = target: T3, PKC-ζ in extracts of human cell lines; assay: Western-blot competition, cell extracts: PRE at 10X/20X the anti-PKC zeta primary antibody concentration competes with that antibody; band densitometry (lower band = PRE bound); remark: listed apart in the source
[19] = target: T3, PKC-ζ in extracts of human cell lines; assay: as above; remark: listed apart in the source

T6 sequence (P05771 other isoform, or with tags, fused parts or gaps limits assumed): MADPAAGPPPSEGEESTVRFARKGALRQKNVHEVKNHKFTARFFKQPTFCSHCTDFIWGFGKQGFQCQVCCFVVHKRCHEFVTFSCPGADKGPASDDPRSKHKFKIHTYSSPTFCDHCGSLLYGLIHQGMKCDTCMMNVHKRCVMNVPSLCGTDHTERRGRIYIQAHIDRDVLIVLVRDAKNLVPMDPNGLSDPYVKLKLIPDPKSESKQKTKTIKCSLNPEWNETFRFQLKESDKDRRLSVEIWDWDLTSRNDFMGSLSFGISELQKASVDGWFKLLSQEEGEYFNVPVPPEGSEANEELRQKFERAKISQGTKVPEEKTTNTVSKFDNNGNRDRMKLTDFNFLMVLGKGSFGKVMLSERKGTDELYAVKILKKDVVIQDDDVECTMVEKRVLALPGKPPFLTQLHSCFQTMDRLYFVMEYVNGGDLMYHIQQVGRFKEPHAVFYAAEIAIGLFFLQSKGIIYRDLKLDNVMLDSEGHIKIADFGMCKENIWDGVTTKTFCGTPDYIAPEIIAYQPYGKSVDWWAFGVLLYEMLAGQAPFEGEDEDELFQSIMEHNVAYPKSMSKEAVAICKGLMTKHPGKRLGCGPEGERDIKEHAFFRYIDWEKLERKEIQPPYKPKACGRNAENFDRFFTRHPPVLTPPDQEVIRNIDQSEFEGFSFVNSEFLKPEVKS
T5 sequence (P05771 whole entry, canonical isoform): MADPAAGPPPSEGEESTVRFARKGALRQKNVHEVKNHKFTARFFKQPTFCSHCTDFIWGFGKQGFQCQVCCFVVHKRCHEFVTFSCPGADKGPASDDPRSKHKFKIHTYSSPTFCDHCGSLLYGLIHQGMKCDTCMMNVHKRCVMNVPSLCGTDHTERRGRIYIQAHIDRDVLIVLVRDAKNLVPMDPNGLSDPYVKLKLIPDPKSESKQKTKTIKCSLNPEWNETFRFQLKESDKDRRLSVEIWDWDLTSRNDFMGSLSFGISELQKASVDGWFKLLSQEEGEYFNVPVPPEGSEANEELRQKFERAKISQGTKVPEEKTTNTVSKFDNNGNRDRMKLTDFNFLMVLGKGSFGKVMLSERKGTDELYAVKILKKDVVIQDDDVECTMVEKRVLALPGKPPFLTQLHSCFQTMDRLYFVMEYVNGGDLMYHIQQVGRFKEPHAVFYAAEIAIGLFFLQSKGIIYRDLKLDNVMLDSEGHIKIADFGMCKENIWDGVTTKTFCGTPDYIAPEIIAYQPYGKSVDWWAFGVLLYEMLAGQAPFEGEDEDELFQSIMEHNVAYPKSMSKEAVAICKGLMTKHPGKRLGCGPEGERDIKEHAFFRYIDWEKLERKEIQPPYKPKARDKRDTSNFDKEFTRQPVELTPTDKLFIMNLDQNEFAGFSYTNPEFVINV
T7 sequence (P05771 2-671 limits assumed): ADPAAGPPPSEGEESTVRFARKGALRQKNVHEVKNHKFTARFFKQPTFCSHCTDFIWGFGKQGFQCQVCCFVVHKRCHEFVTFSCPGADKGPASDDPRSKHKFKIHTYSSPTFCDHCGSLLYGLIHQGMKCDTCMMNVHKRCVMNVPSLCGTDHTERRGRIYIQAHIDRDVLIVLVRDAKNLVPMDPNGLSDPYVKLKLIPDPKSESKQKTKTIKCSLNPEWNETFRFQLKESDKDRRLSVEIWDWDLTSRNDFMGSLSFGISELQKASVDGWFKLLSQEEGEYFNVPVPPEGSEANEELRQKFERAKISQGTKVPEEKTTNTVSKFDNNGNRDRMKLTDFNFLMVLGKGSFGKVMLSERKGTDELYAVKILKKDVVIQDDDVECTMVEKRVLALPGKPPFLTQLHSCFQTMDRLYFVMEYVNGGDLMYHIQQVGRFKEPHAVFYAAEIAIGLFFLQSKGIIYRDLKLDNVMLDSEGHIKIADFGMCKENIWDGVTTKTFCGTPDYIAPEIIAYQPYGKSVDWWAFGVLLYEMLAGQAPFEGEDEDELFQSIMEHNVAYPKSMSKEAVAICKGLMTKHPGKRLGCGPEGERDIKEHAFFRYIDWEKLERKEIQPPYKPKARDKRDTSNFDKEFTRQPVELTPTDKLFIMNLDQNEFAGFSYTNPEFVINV

| Binder | relative binding capacity [1] [%] | relative binding capacity [2] [%] | relative binding capacity [3] [%] | binding result [6] | further results |
| --- | --- | --- | --- | --- | --- |
| Ac-AKGIQEVKGGDAQNLIGISI-NH2 (also called peptide recognition element 3) [PRE 3] | 34 | 31.5 | 31 | – | binding result [4]: binds |
| Ac-RDAQNLI-NH2 (Ac-RDAQNLI-NH2; also called peptide recognition element 13) [PRE 13] | 0 | 0 | 0.85 | no binding | binding result [5]: no binding; binding result [7]: no binding; binding result [8]: no binding (tested: 20X the primary antibody concentration); binding result [9]: no binding (tested: 20X the primary antibody concentration); binding result [10]: no binding (tested: 20X the primary antibody concentration); binding result [11]: no binding (tested: 20X the primary antibody concentration) |
| Ac-KDAQNLIGISI-NH2 (also called peptide recognition element 4) [PRE 4] | – | – | – | – | binding result [12]: binds |
| Ac-RDAQNLIGISI-NH2 (also called peptide recognition element 11) [PRE 11] | 2.25 | 13 | 9.84 | – | binding result [13]: no binding (tested: 20X the primary antibody concentration) |
| Ac-ISIGILQNADK-NH2 (also called peptide recognition element 7) [PRE 7] | 8.04 | 14 | 3.78 | – | binding result [14]: no binding (tested: 20X the primary antibody concentration) |
| Ac-KDANQLIGISI-NH2 (also called peptide recognition element 6) [PRE 6] | – | – | – | no binding | binding result [15]: no binding (tested: 20X the primary antibody concentration); binding result [16]: no binding (tested: 20X the primary antibody concentration) |
| RRKKGGKDFVVKR (also called peptide recognition element 1) [PRE 1] | – | – | – | no binding | binding result [17]: no binding (tested: 20X the primary antibody concentration); binding result [18]: binds |
| Ac-AKGIQEVKGGKDAQNLIGISI-NH2 (also called peptide recognition element 5) [PRE 5] | – | – | – | – | binding result [19]: binds |
